Assay results reported in patent US20240285573A1, “PHARMACEUTICAL COMPOSITION FOR PREVENTING OR TREATING DIABETIC EYE DISEASE COMPRISING SGLT-2 INHIBITOR” (priority 2021, published 2024).

System: diabetic retinopathy animal model
Experiment: Retinal fluorescein intensity (fundus imaging) in streptozotocin-induced diabetic retinopathy animal model
Assay type: in vivo, Brown Norway rats (BN/SsN Slc)
Details: relative to normal control G1 = 100%, STZ-induced rats, right eye, intravitreal, non-vascular regions of retina
Description: Brown Norway rats (BN/SsN Slc) were used. […] Streptozotocin (STZ) was administered to animals determined to be healthy during the acclimation period, and blood sugar levels were measured on day 7 of administration. […] Streptozotocin was intravenously administered once at a dose of 60 mg/kg on the day of induction. G1 is a normal control in which diabetic retinopathy was not induced, G2 is a control in which diabetic retinopathy was induced and to which the vehicle of Comparative Example 1 was administered, and G3 and G4 are groups to which ranibizumab of Comparative Example 2 was administered as a positive control material, and G5 to G9 are groups to which the SGLT-2 inhibitors according to Examples 1 to 5 were administered, respectively. For intravitreal injection, animals were anesthetized, and a syringe with a 31-gauge needle was used to perform intravitreal injections into the right eye of the respective animals. The test material was administered as a single dose on the day of administration. The injection volume was either 1 μL/eye or 5 μL/eye. […] Retinal examination and efficacy were assessed using retinal fluorescent fundus photographs. […] The relative levels (%) of the measured values for each individual were analyzed, with the average value of the normal control group (G1) as the reference (100%), and comparisons were made between the groups. […]

B1: Ranibizumab (antibody, chains of the INN, looked up, V domains shown)
VH: EVQLVESGGGLVQPGGSLRLSCAASGYDFTHYGMNWVRQAPGKGLEWVGWINTYTGEPTYAADFKRRFTFSLDTSKSTAYLQMNSLRAEDTAVYYCAKYPYYYGTSHWYFDVWGQGTLVTVSS
VL: DIQLTQSPSSLSASVGDRVTITCSASQDISNYLNWYQQKPGKAPKVLIYFTSSLHSGVPSRFSGSGSGTDFTLTISSLQPEDFATYYCQQYSTVPWTFGQGTKVEIK
notes: LUCENTIS® purchased and administered as a positive control; anti-VEGF monoclonal antibody therapy
Fluorescence intensity on 21st day (10 μg/eye, 1 μL/eye, once (G4)): 128.359%
Fluorescence intensity on 21st day (50 μg/eye, 5 μL/eye, once (G3)): 125.586 ± 14.799 %
